4 sequences from the Immune Epitope Database (IEDB) can be followed below.

The target of one assay is HLA-A*01:01. Briefly: IEDB peptide-MHC binding, purified MHC/direct/fluorescence; filed as Kd, often an IC50 or EC50 that approximates it; ≥ and ≤ were set here for values at or beyond the usual limits of such assays.
Assay [1] concerns the target HLA-A*69:01. Described as above.
Another assay deals with HLA-B*40:01. The assay is described as above.
The target of a further assay is HLA-B*27:05. Described as above.
For the next assay, the target named is HLA-A*24:02. Described as above. The settings on record: source organism: Influenza A virus (A/quail/Hong Kong/FY298/00(H9N2)).
In the next assay the target is HLA-B*44:02. Described as above.
Assay [2] has as its target HLA-B*46:01. Described as above.
Another assay addresses HLA-A*02:01. The description is as above.
In a further assay the target is HLA-B*58:01. The assay is described as above.
The target of assay [3] is HLA-B*18:01. The assay is described as above.
Assay [4] has as its target HLA-A*03:01. The description is as above.
The next assay addresses HLA-B*15:09. The assay is described as above.
The target in another assay is HLA-B*08:01. The description is as above.
In the next assay the target is HLA-B*07:02. The assay is described as above.
Assay [5] addresses HLA-B*15:01. The assay is described as above.
The target of assay [6] is HLA-A*26:01. The description is as above. The settings on record: source organism: Burkholderia mallei ATCC 23344.
Another assay deals with HLA-B*48:01. The assay is described as above.
In a further assay the target is HLA-A*31:01. The description is as above.
The target in assay [7] is HLA-B*39:01. The description is as above. To be noted: source organism: Burkholderia mallei ATCC 23344.
Assay [8] concerns the target HLA-B*15:17. The assay is described as above. The settings on record: source organism: Burkholderia mallei.
The target in assay [9] is HLA-B*57:01. The assay is described as above.
For the next assay, the target named is HLA-A*11:01. Described as above.
The next assay addresses HLA-A*68:02. The description is as above. The settings on record: source organism: Burkholderia mallei.
A further assay concerns the target HLA-A*24:03. Briefly: IEDB peptide-MHC binding, purified MHC/competitive/fluorescence; filed as Kd, often an IC50 or EC50 that approximates it; ≥ and ≤ were set here for values at or beyond the usual limits of such assays. To be noted: source organism: Salmonella enterica subsp. enterica serovar Typhimurium str. LT2.
The next assay deals with HLA-A*23:01. The description is as above. To be noted: source organism: Salmonella enterica subsp. enterica serovar Typhimurium str. LT2.
Assay [10] has as its target HLA-A*26:01. The description is as above. To be noted: source organism: Salmonella enterica subsp. enterica serovar Typhimurium str. LT2.
The target in the next assay is HLA-A*02:11. The description is as above. To be noted: source organism: Salmonella enterica subsp. enterica serovar Typhimurium str. LT2.
In assay [11] the target is HLA-A*69:01. The assay is described as above. To be noted: source organism: Salmonella enterica subsp. enterica serovar Typhimurium str. LT2.
Assay [12] addresses HLA-B*39:01. Described as above. The settings on record: source organism: Salmonella enterica subsp. enterica serovar Typhimurium str. LT2.
The target in the next assay is HLA-A*29:02. Described as above. The settings on record: source organism: Salmonella enterica subsp. enterica serovar Typhimurium str. LT2.
The target in the next assay is HLA-A*02:19. The description is as above. The settings on record: source organism: Salmonella enterica subsp. enterica serovar Typhimurium str. LT2.
The target of assay [13] is HLA-B*46:01. The description is as above. The settings on record: source organism: Salmonella enterica subsp. enterica serovar Typhimurium str. LT2.
A further assay deals with HLA-B*51:01. The assay is described as above. To be noted: source organism: Salmonella enterica subsp. enterica serovar Typhimurium str. LT2.
The target in assay [14] is HLA-B*15:17. Described as above. To be noted: source organism: Salmonella enterica subsp. enterica serovar Typhimurium str. LT2.
Assay [15] deals with HLA-B*57:01. The assay is described as above. The settings on record: source organism: Salmonella enterica subsp. enterica serovar Typhimurium str. LT2.
Assay [16] has as its target HLA-B*18:01. The assay is described as above. To be noted: source organism: Salmonella enterica subsp. enterica serovar Typhimurium str. LT2.
In the next assay the target is HLA-B*27:03. The description is as above. The settings on record: source organism: Salmonella enterica subsp. enterica serovar Typhimurium str. LT2.
In assay [17] the target is HLA-A*03:01. The assay is described as above. To be noted: source organism: Salmonella enterica subsp. enterica serovar Typhimurium str. LT2.
Assay [18] concerns the target HLA-B*15:01. Described as above. The settings on record: source organism: Salmonella enterica subsp. enterica serovar Typhimurium str. LT2.
For a further assay, the target named is HLA-A*02:12. The description is as above. To be noted: source organism: Salmonella enterica subsp. enterica serovar Typhimurium str. LT2.
Where [19] appears, read: source organism: Influenza A virus (A/quail/Hong Kong/FY298/00(H9N2)).
Where [20] appears, read: source organism: Burkholderia mallei.
Where [21] appears, read: source organism: Burkholderia mallei ATCC 23344.
Setting [22] is: source organism: Yellow fever virus 17D.

As for ALTLNTMTK, the Kd in the assay with HLA-A*01:01 (setting [19]), in the assay with HLA-A*69:01 [1] (setting [19]), with HLA-B*40:01 (setting [19]), in the assay with HLA-B*27:05 (setting [19]), with HLA-A*24:02 and with HLA-B*44:02 (setting [19]) was at least 20 µM each time. Further, the Kd – broadly, the free concentration of one partner at which half of the binding sites on the other are occupied at equilibrium, for simple one-to-one binding – with HLA-B*46:01 [2] (setting [19]) is at least 20 µM; with HLA-A*02:01 (setting [19]) it was at least 20 µM; with HLA-B*58:01 (setting [19]) it was at least 20 µM; with HLA-B*18:01 [3] (setting [19]) it was at least 20 µM; in the assay with HLA-A*03:01 [4] (source organism: Influenza A virus (A/Puerto Rico/8/34/Mount Sinai(H1N1))), 0.724 µM; with HLA-B*15:09 (source organism: Influenza A virus(A/swine/Henan/5/2004(H9N2))), at least 20 µM. For the same sequence, the Kd in the assay with HLA-B*08:01 (setting [19]), with HLA-B*07:02 (setting [19]) and in the assay with HLA-B*15:01 [5] (setting [19]) was at least 20 µM each time.

Turning to FEIGNGDAG, the Kd with HLA-A*01:01 (setting [20]), with HLA-A*26:01 [6], in the assay with HLA-B*48:01 (setting [20]), with HLA-A*69:01 [1] (setting [20]), with HLA-A*31:01 (setting [20]) and with HLA-B*40:01 (setting [20]) was at least 20 µM in each case. Besides, the Kd with HLA-B*27:05 (setting [20]), with HLA-B*39:01 [7], with HLA-B*44:02 (setting [20]), with HLA-A*02:01 (setting [20]), with HLA-B*15:17 [8] and with HLA-B*58:01 (setting [20]) was at least 20 µM throughout. In addition, the Kd with HLA-B*57:01 [9] (setting [20]), with HLA-B*18:01 [3] (setting [20]), with HLA-A*03:01 [4] (setting [20]), in the assay with HLA-B*15:09 (setting [21]), in the assay with HLA-B*08:01 (setting [21]) and with HLA-A*11:01 (setting [20]) was at least 20 µM each time. Moreover, the Kd in the assay with HLA-B*07:02 (setting [20]), with HLA-B*15:01 [5] (setting [20]) and with HLA-A*68:02 was at least 20 µM in each case.

ILNSDDEQA: the Kd in the assay with HLA-A*24:03 is at least 20 µM; in the assay with HLA-A*23:01, at least 20 µM; in the assay with HLA-A*26:01 [10], at least 20 µM; with HLA-A*02:11, 0.142 µM; in the assay with HLA-A*69:01 [11] it was at least 20 µM; with HLA-B*39:01 [12], at least 20 µM. Moreover, the Kd is 0.644 µM with HLA-A*29:02; 1.63 µM with HLA-A*02:19; at least 20 µM in the assay with HLA-B*46:01 [13]; at least 20 µM with HLA-B*51:01; at least 20 µM with HLA-B*15:17 [14]; at least 20 µM with HLA-B*57:01 [15]. Further, the Kd with HLA-B*18:01 [16], in the assay with HLA-B*27:03, with HLA-A*03:01 [17], with HLA-B*15:01 [18] and with HLA-A*02:12 was at least 20 µM in each case.

With VRGGMVAPL, the Kd with HLA-A*01:01 (setting [22]), with HLA-B*48:01 (setting [22]), in the assay with HLA-A*69:01 [1] (setting [22]), in the assay with HLA-A*31:01 (setting [22]), in the assay with HLA-B*40:01 (setting [22]) and with HLA-B*27:05 (setting [22]) was at least 20 µM throughout. Further, the Kd with HLA-B*44:02 (setting [22]), in the assay with HLA-B*46:01 [2] (setting [22]), in the assay with HLA-A*02:01 (setting [22]), with HLA-B*58:01 (setting [22]), with HLA-B*57:01 [9] (setting [22]) and with HLA-B*18:01 [3] (setting [22]) was at least 20 µM each time. Moreover, the Kd with HLA-A*03:01 [4] (setting [22]), with HLA-B*15:09 (source organism: Yellow fever virus), in the assay with HLA-A*11:01 (setting [22]) and with HLA-B*15:01 [5] (setting [22]) was at least 20 µM throughout.
